In patent US20140256789 one finds activity data, which are given here for one substance.

Bounds are passed on as bounds.

The test system of data set [1] is p53 (wild-type, transfected). The data set can be described thus: cell_activity. As to conditions: luciferase reporter in H1299 with wtp53, fold above pGL3-basic. (In a reporter assay the amount or activity of a reporter protein is the signal.)
In data set [2] the target is p53 (wild-type, endogenous) (Homo sapiens) (UniProt P04637). Description: cell_activity. To be noted: fold decrease in luciferase on p53 siRNA knockdown in HCT116.
p53 (wild-type, endogenous) (Homo sapiens), sequence (P04637 whole entry): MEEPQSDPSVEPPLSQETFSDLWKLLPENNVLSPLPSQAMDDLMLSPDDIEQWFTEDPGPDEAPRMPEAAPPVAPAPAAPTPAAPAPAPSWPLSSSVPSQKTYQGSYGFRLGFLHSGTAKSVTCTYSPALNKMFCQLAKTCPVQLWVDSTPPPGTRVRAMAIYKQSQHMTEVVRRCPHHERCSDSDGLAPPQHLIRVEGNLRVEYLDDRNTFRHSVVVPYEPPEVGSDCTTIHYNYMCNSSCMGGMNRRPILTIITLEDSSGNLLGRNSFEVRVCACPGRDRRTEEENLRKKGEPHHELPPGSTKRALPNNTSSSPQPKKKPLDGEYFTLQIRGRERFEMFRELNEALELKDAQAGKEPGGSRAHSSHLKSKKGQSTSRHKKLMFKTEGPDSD

As to “EST-Prom-luc (about 2 kb miR-34a promoter region with p53BS)”, the figures for the activity in data set [1] and in data set [2] were 20 fold and greater than 3 fold, respectively.
